Test results as given in PMC3313952, “Multicopper Oxidase-3 Is a Laccase Associated with the Peritrophic Matrix of Anopheles gambiae” (PLoS ONE, 2012).

Tests used:
Assay in all cases: spectrophotometric product formation, Michaelis-Menten fit
Format in all cases: biochemical, Anopheles gambiae
[1] = substrate: CCn1c(=NN=c2sc3cc(S(=O)(=O)O)ccc3n2CC)sc2cc(S(=O)(=O)O)ccc21; settings: pH 6.0, 0.1 M Mes; pH 6.0
From the text: (§1) spectrophotometric product formation, Michaelis-Menten fit on AgMCO3

[2] = substrate: N[C@@H](Cc1ccc(O)c(O)c1)C(=O)O; settings: pH 7.5, 0.1 M sodium phosphate; pH 7.5
From the text: as §1

[3] = substrate: NCCC(=O)NCCc1ccc(O)c(O)c1; settings: pH 7.0, 0.1 M sodium phosphate; pH 7.0
From the text: as §1

[4] = substrate: Oc1ccccc1O; settings: pH 7.0, 0.1 M sodium phosphate; pH 7.0
From the text: as §1

[5] = substrate: CC(=O)NCCc1ccc(O)c(O)c1; settings: pH 7.5, 0.1 M sodium phosphate; pH 7.5
From the text: as §1

[6] = substrate: Oc1ccc(O)cc1; settings: pH 6.5, 0.1 M Mes; pH 6.5
From the text: as §1

[7] = substrate: NCCc1ccc(O)c(O)c1; settings: pH 7.5, 0.1 M sodium phosphate; pH 7.5
From the text: as §1

B1: AgMCO3 (Anopheles gambiae) (protein)
chain: QSWLNTLLEQSNGTLDVSTFPGEQCLRECDNTQPRICHFSWTMEHYHVMGPACRDCAKGNHTDCYHPACITADGVERGVMSLNRKIPGPTISVCRHDLIVVDITNAMAGTSAAIHWHGLHQRATPYMDGVPFITQCPIGFGNTFRYAFLATEPGTQFYHSHSGHHKVNGHYGALIVREPKRVDPNGDLYHYDTPAHVILGSDWMHIDGEMFMPGLPSAGGIMPINLLINGKGTYHDPKKNETTQTPLEVYTVRRGARFRFRFINAASHVCPLQLQIEDHMMEVIASDSFHLQPRKVDTLVSTSGERYDFVLEANGVKDTYWVRLRSLGPCADLQLEQFAVLRYTTGPFINDAFPTGAPPTYEEPFRNVATANHPNATCGRPEFGDYCITDFQAYDTDEDVINGVPDHQLTFGFYNYPVSFESMFESNRYEHYMNIYGSVMMQGAINNISLAYPPFSLLTQPEKIRDDTFCDEDNRPDSCSDRQLCTCTHRVKINLGDIVELYILDLTPSVNDLNHPFHLHGYQMFVMEMSQDRRVPITLEIAQNIARQRLLSRNTVALPPRKDTVSIPSRGYARVRFRADNPGFWLMHCHYEWHTAVGMALVLQVGETSEMVKAPADFPKCDSYTPAVGHLLQGSL
notes: no tag mentioned; baculovirus / Sf9 host; cDNA identical to EF592176.2 except Leu instead of Pro at residue 15 in signal peptide (probable GenBank error)
B1 was tested, and the Km [1] was 8500 µM, the kcat [1] was 2.6 s⁻¹ and the kcat/Km [1] was 300 M⁻¹ s⁻¹. It also gave a Km [2] of 1400 µM, a kcat [2] of 1.55 s⁻¹ and a kcat/Km [2] of 1100 M⁻¹ s⁻¹. For the same protein, the Km [3] was 2200 µM, the kcat [3] was 11.8 s⁻¹ and the kcat/Km [3] was 5380 M⁻¹ s⁻¹. The Km [4] was 2100 µM, the kcat [4] was 5.1 s⁻¹ and the kcat/Km [4] was 2430 M⁻¹ s⁻¹. The Km [5] was 1000 µM, the kcat [5] was 2.58 s⁻¹ and the kcat/Km [5] was 2580 M⁻¹ s⁻¹. The Km [6] was 5200 µM, the kcat [6] was 26.2 s⁻¹ and the kcat/Km [6] was 5030 M⁻¹ s⁻¹. For the same protein, the Km [7] was 1600 µM, the kcat [7] was 4.57 s⁻¹ and the kcat/Km [7] was 2850 M⁻¹ s⁻¹.
